One experiment has as its target T1, IGF2^1-104 (Homo sapiens, UniProt P01344).
T1 construct: pro-IGF2 (pro-IGF2^1-104 [11 kDa]
The experiment is described as follows: SPR of IGF forms on Fc-domain 11 proteins immobilised by antibody capture. The format is binding. As to conditions: HBS-EP pH 7.4. As to the method:
(§1) SPR analysis of the interaction of recombinant IGF1 and IGF2 forms with Fc-domain 11 proteins immobilised by antibody capture (CM5 chip containing monoclonal mouse anti-human IgG antibody immobilised by amine coupling). Measurements were carried out at 25° C. in HBS-EP buffer (pH 7.4).
(§2) Final kinetic analysis of mutants by SPR was conducted using a Biacore T200 biosensor at 25° C. in either HBS-EP (10 mM HEPES pH 7.4, 150 mM NaCl, 3 mM EDTA, and 0.005% (v/v) surfactant P20) or MES-EP (20 mM MES pH 6.5, 150 mM NaCl, 3 mM EDTA, and 0.005% (v/v) surfactant P20) at a flow-rate of 40 μL min^−1. […] For the analysis of the Fc-domain 11^AB5 interaction, approximately 50 RU of a biotinylated IGF2:biotinylated ubiquitin mixture (1:8 proportion) was immobilized on the CM5-streptavidin chip. This interaction was also analysed by immobilizing the Fc-domain 11^AB5 and Fc-domain 11^AB5-RHH (or Fc-domain 11^I1572A as control) by Human Antibody Capture (monoclonal mouse anti-human IgG antibody immobilised on a CM5 chip by amine coupling, GE Healthcare) with and without human IgG1 Fc fragment (Bethyl Laboratories, UK) in the control flow cell. Increasing concentrations of IGF2^1-67, proIGF2^1-104, proIGF2^1-156 and IGF1 ranging from 0.125 to 32 nM were injected. T200 BiaEvaluation software (GE Healthcare) was used to fit the resulting curves according to a 1:1 binding model. Steady state affinities were determined using the kinetic data, taking the response average at 5 seconds before injection end and for 5 seconds average. Thermodynamic data was performed across the temperature range of 10° C. to 30° C., van't Hoff and Erying plots generated and ΔH, −TΔS and ΔG values determined as previously described.

The target of the next experiment is T2, IGF2^1-156 (Homo sapiens, UniProt P01344).
T2 construct: pro-IGF2^1-156 [17 kDa]
The description is as above. The format is binding. As to the method: as §1, §2

Another experiment has as its system Hep 3B2.1-7 cells. The experiment is described as follows: In vitro cell viability (CellTiter 96 AQueous). It is filed as cell-based, human. As to conditions: cell line not specified in the sentence (FIG. 10: Hep3B, Huh7). As to the method: The human hepatocellular carcinoma cell lines Hep 3B2.1-7 and Huh-7D12 were obtained from the ATCC (HB-8065) and the ECACC (Catalogue number 1042712), respectively. Hep 3B2.1-7 was grown in EMEM (Lonza) supplemented with 10% (v/v) fetal bovine serum, 100 U mL-1 penicillin, 100 μg mL-1 streptomycin, and 2 mM Lglutamine Huh-7D12 was grown in DMEM (Sigma) supplemented with 10% fetal bovine serum, 100 U mL-1 penicillin, 100 μg mL-1 streptomycin, and 2 mM L-glutamine. Cells were plated in 96-well plates at a density of 1-2×10^4 cells/well in serum free medium. After 24 hr, Fc-domain 11^AB5 (orange), Fc-domain 11^I1572A as negative control (grey) or OSI-906 (purple) were added to each well to different final concentrations and the cells were incubated for further 48-72 hr. Cell viability was assayed at 48 and 72 hr after Fc-domain 11^AB5 treatment using the CellTiter 96® AQueous Non-Radioactive Cell Proliferation Assay (Promega). The half maximal inhibitory concentration (IC50) was calculated using graph prism.

In experiment [1] the test system is IGF2^1-67-induced hypoglycaemia. The experiment is described as follows: IGF2-induced hypoglycaemia mouse model. The format is in vivo. As to conditions: pre-loading, co-injection or post-loading. The text has this: All animal experiments were approved by the animal use ethical committee of Oxford University and fully complied with UK Home Office guidelines (PPL 30/2695). Wild-type C57BL/6J and 129S2 mice were used throughout. Mice were anaesthetised using a rising concentration of isoflurane in oxygenated air and maintained using 2% isoflurane with 2 L min^−1 oxygen. Blood glucose measurements were taken using an Advantage diabetic glucose meter (Roche Diagnostics, Burgess Hill, UK). In order to test the direct inhibition of IGF2-induced hypoglycaemia by Fc-domain 11^AB5, blood glucose levels were allowed to normalise for 30 min prior to taking a baseline blood glucose reading, then either 1 mg kg^−1 IGF2 only (R&D systems), […], Fc-domain 11^RHH, or Fc-domain 11^I1572A ([…]) was injected. Blood glucose measurements were taken every 10 min for the following hour. For the Fc-domain 11^AB5 mouse preloading experiment, 11.7 mg kg^−1 Fc-domain 11^AB5 or PBS, as negative control, was injected immediately after induction of anaesthesia, 30 mins later a baseline blood glucose reading was taken and 1 mg kg^−1 IGF2 ([…]) was injected, readings were then taken every 10 min for the following hour. For the mouse IGF2 preloading experiment, 1 mg kg^−1 IGF2 was injected immediately after induction of anaesthesia, 30 min later a baseline blood glucose reading was taken and either 11.7 mg kg^−1 Fc-domain 11^AB5 ([…]) or PBS was injected, readings were then taken every 10 min for the following hour.

Results on 1 molecule are retold here after patent US10494415B2, “Insulin-like growth factor 2 (IGF2) binding agents” (Cancer Research Technology Limited, priority 2015, dated 2019).

Marks after values point to notes of the source that are not given here.

T2 sequence (P01344 25-180): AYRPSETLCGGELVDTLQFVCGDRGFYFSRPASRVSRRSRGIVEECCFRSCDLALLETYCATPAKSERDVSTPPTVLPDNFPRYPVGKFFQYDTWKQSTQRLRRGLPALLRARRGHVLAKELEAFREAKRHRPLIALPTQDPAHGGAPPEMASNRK
T1 sequence (P01344 25-128): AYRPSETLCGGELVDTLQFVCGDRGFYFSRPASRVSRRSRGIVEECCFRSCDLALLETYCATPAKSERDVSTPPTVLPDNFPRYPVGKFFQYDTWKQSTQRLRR

B1: Fc-domain 11^I1572A: low binder Fc-domain 11 fusion with I1572A, non-IGF2 binding control (protein)
chain: NEHDDCQVTNPSTGHLFDLSSLSGRAGFTAAYSEKGLVYMSICGENENCPPGVGACFGQTRASVGKANKRLRYVDQVLQLVYKDGSPCPSKSGLSYKSVISFVCRPEAGPTNRPMLISLDKQTCTLFFSWHTPLACEQAT
modifications: left off: a dimerising Fc or GST
On to B1, for which the Kinetics koff with IGF2^1-104 stood at 0.002 s⁻¹; in the experiment with IGF2^1-156 (HBS-EP pH 7.4), 0.0008 s⁻¹. Besides, the figures for the Kinetics kon with IGF2^1-104 and in the experiment with IGF2^1-156 (may be inaccurate (mixture of three isoforms)) were 520000 M⁻¹ s⁻¹ and 0.29* ×10^6 M^−1s^−1, respectively. Also, the “Inhibitory effect on cell lines” value in the experiment with Hep 3B2.1-7 cells is “no effect”. In addition, the “IGF2-induced hypoglycaemia (blood glucose)” value in experiment [1] is “not detected”.
